Assay results taken from patent US20040005550A1, “Methods and compositions useful for targeting activated vitronectin receptor alphavbeta3” (The Scripps Research Institute, priority 1998, published 2004).

Target: T1, αvβ3 expressed in CHO cells (Homo sapiens, UniProt P05106+P06756)
T1 construct: cDNAs encoding full-length human αv and β3 were subcloned into pcDNA3 and pCDM8; expressed in transfected cells
Test: Flow cytometry ligand binding to αvβ3-CHO cells
Details: in presence of antibody AP5; 2 mM RGDS, 50 μM cRGDfV, 1 μM Integrilin, 100 μg/ml LM609
Protocol: Binding of aPB, WOW-1 Fab and FITC-fibrinogen to cells was assessed by flow cytometry. Typically, cells were cultured overnight in low serum medium (e.g., 0.5% fetal bovine serum), resuspended in incubation buffer at 1-1.5×10^7 cells/ml, and 4-6×10^5 cells were incubated with one of these ligands for 30 min at room temperature in a final volume of 50 μl. […] In some experiments, ligand binding and αvβ3 expression were measured simultaneously by incubation of cells with ligands in the presence of biotin-SSA6 (7 μg/ml), a non-function-blocking anti-β3 monoclonal antibody (Abrams, C., Deng, J., Steiner, B., and Shattil, S. J. (1994) J. Biol. Chem. 269, 18781-18788). After 30 min at room temperature, cells were washed and incubated with phycoerythrin-streptavidin (1:25 final dilution; Molecular Probes) for 20 min on ice. In the case of WOW-1 Fab, an Alexa-conjugated anti-(His)6 monoclonal antibody (Accurate Chemical and Scientific Corp., Westbury, N.Y.) was added at this stage (50 μg/ml). Cells were washed and resuspended in 0.5 ml incubation buffer containing 2 μg/ml propidium iodide (Sigma, St. Louis, Mo.). Ligand binding (FL1 channel) was analyzed immediately on the gated subset of live cells (propidium iodide-negative, FL3) that was strongly positive for αvβ3 expression (FL2). […]

T1 sequence (P06756 31-889 limits assumed): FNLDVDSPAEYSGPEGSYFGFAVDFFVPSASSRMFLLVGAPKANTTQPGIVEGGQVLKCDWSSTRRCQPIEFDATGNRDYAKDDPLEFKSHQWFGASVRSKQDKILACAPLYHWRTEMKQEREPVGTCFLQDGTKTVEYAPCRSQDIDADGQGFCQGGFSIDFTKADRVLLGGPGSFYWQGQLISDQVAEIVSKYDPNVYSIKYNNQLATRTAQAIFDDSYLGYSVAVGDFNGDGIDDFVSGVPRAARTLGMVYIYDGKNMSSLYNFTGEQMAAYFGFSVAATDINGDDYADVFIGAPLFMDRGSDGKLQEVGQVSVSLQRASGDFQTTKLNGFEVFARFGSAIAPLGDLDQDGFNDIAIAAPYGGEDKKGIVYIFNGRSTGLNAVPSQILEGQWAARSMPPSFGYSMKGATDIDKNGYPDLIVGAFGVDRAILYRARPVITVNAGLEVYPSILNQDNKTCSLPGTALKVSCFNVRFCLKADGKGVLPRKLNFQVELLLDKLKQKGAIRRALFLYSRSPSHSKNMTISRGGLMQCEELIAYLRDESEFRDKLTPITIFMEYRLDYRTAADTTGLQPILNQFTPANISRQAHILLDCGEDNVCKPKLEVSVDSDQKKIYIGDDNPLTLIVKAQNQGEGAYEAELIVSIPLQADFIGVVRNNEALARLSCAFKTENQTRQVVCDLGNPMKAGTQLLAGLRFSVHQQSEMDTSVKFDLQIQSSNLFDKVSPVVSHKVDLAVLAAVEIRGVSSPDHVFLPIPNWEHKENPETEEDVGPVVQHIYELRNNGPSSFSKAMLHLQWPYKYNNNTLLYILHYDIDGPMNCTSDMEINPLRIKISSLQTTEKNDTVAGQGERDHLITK
T1 sequence (P06756 891-1048 partner limits assumed): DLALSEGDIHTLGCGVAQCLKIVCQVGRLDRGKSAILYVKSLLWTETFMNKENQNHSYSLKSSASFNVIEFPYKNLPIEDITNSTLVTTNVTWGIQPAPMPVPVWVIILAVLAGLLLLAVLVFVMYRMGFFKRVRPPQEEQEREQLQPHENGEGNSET
T1 sequence (P05106 27-788): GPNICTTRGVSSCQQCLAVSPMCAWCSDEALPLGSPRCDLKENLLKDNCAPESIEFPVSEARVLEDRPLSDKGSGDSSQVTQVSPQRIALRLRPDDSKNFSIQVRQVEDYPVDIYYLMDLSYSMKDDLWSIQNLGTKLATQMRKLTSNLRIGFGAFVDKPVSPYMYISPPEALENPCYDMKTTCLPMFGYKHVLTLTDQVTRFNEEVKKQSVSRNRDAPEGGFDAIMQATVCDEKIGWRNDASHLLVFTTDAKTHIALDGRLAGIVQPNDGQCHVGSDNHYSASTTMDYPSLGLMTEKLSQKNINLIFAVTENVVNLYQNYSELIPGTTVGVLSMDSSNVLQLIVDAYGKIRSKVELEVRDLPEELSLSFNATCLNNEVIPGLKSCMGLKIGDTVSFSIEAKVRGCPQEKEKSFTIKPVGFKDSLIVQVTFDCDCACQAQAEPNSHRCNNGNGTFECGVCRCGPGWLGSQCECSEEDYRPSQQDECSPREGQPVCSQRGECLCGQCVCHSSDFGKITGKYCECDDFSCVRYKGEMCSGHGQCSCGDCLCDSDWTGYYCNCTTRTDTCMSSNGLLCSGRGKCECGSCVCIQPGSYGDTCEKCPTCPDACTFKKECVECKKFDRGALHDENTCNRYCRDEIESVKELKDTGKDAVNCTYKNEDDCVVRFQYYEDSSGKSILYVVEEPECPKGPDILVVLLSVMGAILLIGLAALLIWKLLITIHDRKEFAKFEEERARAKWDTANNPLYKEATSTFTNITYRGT

inhibition of aPB and WOW-1 Fab binding: more than 70%
B1: LM609: αvβ3-specific function-blocking monoclonal antibody (antibody, V domains shown)
VH: EVQLEESGGGLVKPGGSLKLSCAASGFAFSSYDMSWVRQIPEKRLEWVAKVSSGGGSTYYLDTVQGRFTISRDNAKNTLYLQMSSLNSEDTAMYYCARHNYGSFAYWGQGTLVTVSA
VL: ELVMTQTPATLSVTPGDSVSLSCRASQSISNHLHWYQQKSHESPRLLIKYASQSISGIPSRFSGSGSGTDFTLSINSVETEDFGMYFCQQSNSWPHTFGGGTKLEIKRA
